From the nanobody polyreactivity screen of Harvey et al. (2022)

Test: yeast display, Sf9 membrane polyspecificity reagent, FACS + sequencing; frameworks hold sequencing errors
Procedure, shortened: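 Synthetic nanobody libraries on Saccharomyces cerevisiae BJ5465 were galactose-induced for 36–48 hours, stained 1 hour at 4 °C with 10% biotinylated, detergent-solubilized Sf9 membrane reagent and enriched on streptavidin microbeads. FACS then separated cells into low and high (top ~1%) gates by anti-HA (expression) and streptavidin (reagent binding) fluorescence. Genes were colony-PCR amplified, MiSeq 2 × 250 sequenced and CDR-length filtered. A clone's polyreactivity label is that of its gate of origin.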

QVQLVESGGGLVQAGGSLRLSCAASGITFNLNDMGWYRQAPGKERELVAAITSGGNTSYADSVKGRFTISRDNAKNTVYLQMNSLKPEDTAVYYCAADLHTELYKMDYWGQGTQVTVSS
polyreactivity (PSR sort gate): low polyreactivity

QVQLVESGGGLVQAGGSLRLSCAASGITFNPYTMGWYRQAPGKERELVADINRGGDTTYADSVKGRFTISRDNAKNTVYLQMNSLKPEDTAVYYCAKRLVQWMDYWGQGTQVTVSS
polyreactivity (PSR sort gate): low polyreactivity

QVQLVESGGGLVQAGGSLRLSCAASGITFNTYTMVWYTQAPGKERELVAAISGSSGRTYYADSVKGRFTISRDNAKNTVYLQMNSLNPEDTAVYYCAAYAVESYKYDYWGHGTQVTVSS
polyreactivity (PSR sort gate): high polyreactivity

QVQLVESGGGLVQAGGSLRLSCAASGITFNVLAMGWYRQAPGKEREFVAAISTRDGTTYADSLKGRFTISRDNAKNTVYLQMNSLKPEDTAVYYCAAAYYYDGQQGDFDYWGQGTQVTVSS
polyreactivity (PSR sort gate): low polyreactivity

QVQLVESGGGLVQAGGSLRLSCAASGITFNVNAMGWYRQAPGKERELVARITTSGGSTSYADSVKGRFTISRDNAKNTVYLQMNSLKPEDTAVYYFAADRARYYSEYDYWGQGTQVTVSS
polyreactivity (PSR sort gate): low polyreactivity

QVQLVESGGGLVQAGGSLRLSCAASGITFNYNAMGWYRQAPGKERELVARITWSGTRTYYADSVKGRYTISRDNAKNTVYLQMNSLKPEDTAVYYCNADPYARYYWGQGTQVTVSS
polyreactivity (PSR sort gate): high polyreactivity

QVQLVESGGGLVQAGGSLRLSCAASGITFPDYAMGWYRQAPGKERELVAAISRGVNTYYADSVKGRFTISRDNAKNTVYLQMNSLKPEDTAVYYCNRRGSSGYDYWGQGSQVTVSS
polyreactivity (PSR sort gate): low polyreactivity

QVQLVESGGGLVQAGGSLRLSCAASGITFPGNAMGWYRQAPGKERELVAGISDGDSTNYADSVKGRFTISRDNAKNTVYLQMNSLKPEDTAVYYCNAQGTTETSGGGFFRGMDYWGQGTQVTVSS
polyreactivity (PSR sort gate): low polyreactivity

QVQLVESGGGLVQAGGSLRLSCAASGITFPGYAMGWYRQATGKERELVAVIRKSGTSTYYADSVKGRFTISRDTAKNTVYLQMNSLKPEDTAVYYCAAGGPSTLDDYWGQGTQVTVSS
polyreactivity (PSR sort gate): low polyreactivity

QVQLVESGGGLVQAGGSLRLSCAASGITFPINAMGWSRQAPGKEREFVATISFSGASTYYADSVKGRFTISRDNAKNTVYLQMNSLKPEDTAVYYCAADLSLSTGGRAFPTYGYWGQGTQVTVSS
polyreactivity (PSR sort gate): high polyreactivity

QVQLVESGGGLVQAGGSLRLSCAASGITFPLYAMGWYRQAPGKERELVATISGRGGSTYYADSVKGRFTISRDNAKNTVYLQMNSLKPEDTAVYYCNADFRSPYFLLSWYHSGDYWGQGTQVTGSS
polyreactivity (PSR sort gate): low polyreactivity

QVQLVESGGGLVQAGGSLRLSCAASGITFPLYVMGWSRQAPGKERELVAAISASGGSTYADSVKGRFTISRDNAKNTVYLQMNSLKPEDTAVYYCNADVYVGYDYDYWGQGTLVTVSS
polyreactivity (PSR sort gate): low polyreactivity

QVQLVESGGGLVQAGGSLRLSCAASGITFPNYTMGWYRQAPWKERELLAAISYNGGGTYYADSVNGRFTISRYKAKNTVYVQKNSLKPEDTAVYYCAALGLYGDYLRYDYWGQGTQVSVSS
polyreactivity (PSR sort gate): high polyreactivity

QVQLVESGGGLVQAGGSLRLSCAASGITFPRYAMGWYRQAPGKERELVAAISKSGGRTYYADSVKGRFTISRDNAKNTVYLQMISLKPEDTAVYYCAADPLLGYLSHYYWGQGTQVTVSS
polyreactivity (PSR sort gate): high polyreactivity

QVQLVESGGGLVQAGGSLRLSCAASGITFPRYAMGWYRQAPGKERELVATITRSGGGTYYADSVKGRFTISRDNAKNTVYLQMNSLKPEDTAVYYCAAGALQRGVYGYGYWGQGTQVTVSS
polyreactivity (PSR sort gate): high polyreactivity

QVQLVESGGGLVQAGGSLRLSCAASGITFPSYVMGWYRQAPGKERELVAAISWRGGSTYYADSVKGRFTISRDNAKNTVYLQMNSLKPEDTAVYYCAAGSARDDDYWGQGTQVTVSS
polyreactivity (PSR sort gate): high polyreactivity

QVQLVESGGGLVQAGGSLRLSCAASGITFPYYAMGWYREAPGKERELVAAITQSGGSTYYADSVKGRFTISRDNAKNTVYLQMNSLKPEDTAVYYCAADSSRSVNYYRYDYWGQGTQVTLSS
polyreactivity (PSR sort gate): low polyreactivity

QVQLVESGGGLVQAGGSLRLSCAASGITFPYYAMGWYRQAPGKERELVAAISAGGTRTYYADSVKGRFTISRDNAKNNVYLQMNSLKPEDTAVYYCAARVWPIVQNYYWGQGTQVTVSS
polyreactivity (PSR sort gate): high polyreactivity

QVQLVESGGGLVQAGGSLRLSCAASGITFPYYAMGWYRQAPGKERELVAAITIRSGRTYYADSVKGRFTISRDNAMNTVYLQMNSLKPEDTAVYYCAARLSNTYGYWGQGTQVTVSS
polyreactivity (PSR sort gate): high polyreactivity

QVQLVESGGGLVQAGGSLRLSCAASGITFPYYAMGWYRQAPGKERELVASINRSGGTNYADSVKGRFTISRDNAKNTVYLPMNSLKPVDTAVYYCAAPGRYGEYDYWGQGTQVNVSS
polyreactivity (PSR sort gate): low polyreactivity

QVQLVESGGGLVQAGGSLRLSCAASGITFPYYGMGWYRQAPGKERELVAAISRGGRTNYADSVKGRFTISRDNAKNTVYLQMNSLKPEDTAVYYCNTRTWSVFAKSDYWGQGTQVTVSS
polyreactivity (PSR sort gate): high polyreactivity

QVQLVESGGGLVQAGGSLRLSCAASGITFQNYAMGWYRQAPGKEMELVAAITRSGGRTYYADSVKGRFTNSRDNANYTVYLQMNSLKQEDTAVYYCAVYGIGRPYWYDYWGQGTQVTVSS
polyreactivity (PSR sort gate): high polyreactivity

QVQLVESGGGLVQAGGSLRLSCAASGITFQNYAMGWYRQSPGKERELVAAITRSGGRTYYADSVKGRFTISRDNAKNTVYLQINSLKPEDTAVYYCAFYGIGRPYWYDYWGQGTQVTVSS
polyreactivity (PSR sort gate): high polyreactivity

QVQLVESGGGLVQAGGSLRLSCAASGITFQSNAMGWYRQAPGKERELVAAIDWRGDSTYYADSVKGRFTISRDNAKNTVYLQMNSLKPEDTAVYYCNADISGSGQWDGYDYWGQGTQVTVSS
polyreactivity (PSR sort gate): low polyreactivity

QVQLVESGGGLVQAGGSLRLSCAASGITFQWNALGWYRQAPGTERELVAAITRSGGRTYYADSVKGRFTISRDNAKNTVYLQMYSLKPEDTAVYYCAARYWDNPYWFDYWGQGTQVTVSS
polyreactivity (PSR sort gate): high polyreactivity

QVQLVESGGGLVQAGGSLRLSCAASGITFQYYAMGWYRQAPGKERELVAAISSGGSTYYADSVKGRFTISRDNAKNTVYLQMNILKPEDTAVYYCAAKRVFFGLNYDYWGQGTQVTVSS
polyreactivity (PSR sort gate): high polyreactivity

QVQLVESGGGLVQAGGSLRLSCAASGITFQYYAMGWYRQAPGKERELVAAITSSGVSTYYADSVKGRFTISRDNAKNTVYLQMNSLKPEDTAVYYCNTVVRGWSSSAYDDWGQGTQVTVSS
polyreactivity (PSR sort gate): low polyreactivity

QVQLVESGGGLVQAGGSLRLSCAASGITFQYYDMGWYRQAPGKEREFVAAISWRSGRTYYADSVKGRFTISRDNAKNTVYLQMNSLKPDDTAVYYCTAALYGVTTDMDYWGQGTQVTVSS
polyreactivity (PSR sort gate): high polyreactivity

QVQLVESGGGLVQAGGSLRLSCAASGITFRFNAMGWYRQAPGKEREFVAAITYSGDSTYYADSVKGRFTISRDNAKNTVYLQMNSLKPEDTAVYYCAADASSKLYDYWGQGTQVTVSS
polyreactivity (PSR sort gate): low polyreactivity

QVQLVESGGGLVQAGGSLRLSCAASGITFRFYAMGWYRQAPGKERELVAVISRGGGTTYYADSVKGRFTISRDNAKNTVYLQMNSLKPEDTAVYYCNAVIAWYRSDEYDYWGQGTQVTVSS
polyreactivity (PSR sort gate): high polyreactivity

QVQLVESGGGLVQAGGSLRLSCAASGITFRGNAMGWYRQAPGKERELVATISSGGITNYADSVKGRFTISRDNAKNTVYLQMNSLKPEDTAVYSCAADLFVHKPRYQYSFDYWGQGTQVTVSS
polyreactivity (PSR sort gate): low polyreactivity

QVQLVESGGGLVQAGGSLRLSCAASGITFRHNTMGWYRQAPGKERELVSTNYADSVKGRFTISRDNAKNTVYLQMNSLKPEDTAVYYCNADGTFEYDYWGQGTQVTVSS
polyreactivity (PSR sort gate): low polyreactivity

QVQLVESGGGLVQAGGSLRLSCAASGITFRNYAMGWYRQAPGKERELVAAITTSGSRTYYADSVKGRFTISRDNAKNTVYLQMNSLKPEDTAVYYCAAEKAPWQYYDFEYWGQGTQVTVSS
polyreactivity (PSR sort gate): high polyreactivity

QVQLVESGGGLVQAGGSLRLSCAASGITFRNYARGWYRQAPGKERELVAAITTSGSRTYYEDSVKGRFTISRDNAKKTVYLQMNSLKPEDTAVYYCAAQQVPWQYYDFEYWGQGTQVTVSS
polyreactivity (PSR sort gate): high polyreactivity

QVQLVESGGGLVQAGGSLRLSCAASGITFRRNAMGWYRQAPGKERELVARITGSGGSTYYADSVKGRFTISRDNAKNTVYLQMNSLKPEATAVYYCATERYGKYAMDYWGQGTQVTVSS
polyreactivity (PSR sort gate): high polyreactivity

QVQLVESGGGLVQAGGSLRLSCAASGITFRRYAMGWYRQAPGKERELVASITRGGSTSYADSVKGRFRFSRDNAKNTVYLQMNSLKPEDTAVYYCAADAFRGFYWGQGTQVTVSS
polyreactivity (PSR sort gate): high polyreactivity

QVQLVESGGGLVQAGGSLRLSCAASGITFRRYAMGWYRQAPGPEREFVATISGIGGNTYYADSVKGRFTISRANAKNPVYLQMNSLKPEDPAVYYCAADLWAGTYGEYDYWGQGPQVTVSS
polyreactivity (PSR sort gate): high polyreactivity

QVQLVESGGGLVQAGGSLRLSCAASGITFRRYVMGWYRQAPGKERELVARISSDGSTSYADSVKGRFTISRNNAKNTVYLQMNSLKPEDTAVYYCAAVHQWYVRYSTGYNYWGQGTQVTVSS
polyreactivity (PSR sort gate): high polyreactivity

QVQLVESGGGLVQAGGSLRLSCAASGITFRSYAMGWNIQAPGKERELVAAITTGTRTYYADSVKGRFTISRDNAKNTVFLQMKSLKPEDTAVYYCARDGVGRVYGYLTPLGYDYWGHGTQVTVSS
polyreactivity (PSR sort gate): low polyreactivity

QVQLVESGGGLVQAGGSLRLSCAASGITFRSYAMGWYRQAPGKERELVAAISSTGRTYYADSVKGRFTISRDNAKNTVYLQMNSLKPEDTAVYYCATGGQGAFWGQGTQVTVSS
polyreactivity (PSR sort gate): high polyreactivity

QVQLVESGGGLVQAGGSLRLSCAASGITFRSYAMGWYRQAPGKERELVAAITSGASTNYADSVKGRFTISRDNAKNTVYLQMNSLKPEDTAVYYCAATYHTWRGQYLWYDYWGQGTQVTVSS
polyreactivity (PSR sort gate): low polyreactivity

QVQLVESGGGLVQAGGSLRLSCAASGITFRTNAMGWYRQAPGKERELVAVISSTGGRTYYADSVKGRFTISRDNAKNTVYLQMNSLNPEDTAVYYCAARAKYRFGYDYWGQGTQVTVSS
polyreactivity (PSR sort gate): high polyreactivity

QVQLVESGGGLVQAGGSLRLSCAASGITFRTNTMGWYRQAPGKERELVAAITRSGVTTYYADSVKGRFTISRDNAKNTVYLQMNSLKPEDTAVYYCAARSTKYLYGYWGQGTQVTVSS
polyreactivity (PSR sort gate): high polyreactivity
